Results from the supplement of paper PMC9732359.
± gives the uncertainty stated by the source.

Test: protein stability index of a GFP-peptide fusion (yeast GPS) (PSI 1-4); higher = more stable; sorted into four equal gates, so the index is relative within each strain
How it was run: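 Yeast carrying a pooled library were grown to mid-log phase in leucine-free medium. Each library plasmid expresses Cherry and has a tiled 17-residue yeast protein peptide fused downstream of GFP. Cells were sorted into four equal gates by GFP/Cherry ratio, and plasmids from each gate were PCR-amplified, Illumina-sequenced and assigned to strains by barcode. Summing, across gates, the read frequency times the gate number gave each peptide's protein stability index.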

| Sequence | protein stability index (doa10∆) | protein stability index (pdr5∆) | protein stability index (san1∆) | protein stability index (ubr1∆) |
| --- | --- | --- | --- | --- |
| MISEVPSVAAEYVYFFN [RPC40] | 1.53 ± 0.11 | 1.13 ± 0.091 | 1.23 ± 0.11 | 1.07 ± 0.079 |
| WQEYSSVFKGGMQNLIK [SRP14] | 3.1 ± 0.12 | 3.44 ± 0.13 | 2.92 ± 0.14 | 3.16 ± 0.17 |
| SALCILKEQELVLYDAE [BRR2] | 2.47 ± 0.16 | 2.72 ± 0.12 | 2.25 ± 0.11 | 2.52 ± 0.1 |
| HEILSEPAIEEENGDSI [MED1] | 2.98 ± 0.17 | 3.11 ± 0.12 | 2.99 ± 0.19 | 3.26 ± 0.14 |
| SKKDFKIIDNPKSFLKK [YMR129W/POM152] | 3.05 ± 0.082 | 3.35 ± 0.095 | 3.08 ± 0.07 | 3.17 ± 0.092 |
| SLPEGLLKSLWDYVKKN [TAF14] | 3.01 ± 0.17 | 2.02 ± 0.079 | – | 3.13 ± 0.093 |
| YEHNGRTLEAITATLVG [CSL4] | 2.03 ± 0.051 | 2.05 ± 0.051 | 1.83 ± 0.066 | 2.04 ± 0.038 |
| RKDLRDKLICSIDPPGC [DIS3] | 2.96 ± 0.066 | 2.91 ± 0.047 | 2.67 ± 0.055 | 3.03 ± 0.051 |
| QGKPYISLPKGKGIKLS [RPS4A] | 3.29 ± 0.07 | 3.33 ± 0.081 | 2.84 ± 0.06 | 2.45 ± 0.073 |
| QGISGSQQNIVPNSSDQ [SNF2] | 2.92 ± 0.05 | 3.11 ± 0.06 | 3.16 ± 0.041 | 2.95 ± 0.053 |
| VSSAKFSGKYLKYLTKK [RPL22B] | 2.82 ± 0.25 | 2.52 ± 0.2 | 2.59 ± 0.12 | 2.66 ± 0.18 |
| HCEDKDYKTAFSYFFES [RPN6] | 2.77 ± 0.081 | 2.83 ± 0.071 | 2.53 ± 0.076 | 3.02 ± 0.055 |
| SNRLLMDVDQFDFLDDG [YJR042W/NUP85] | 1.49 ± 0.097 | 1.37 ± 0.15 | 1.69 ± 0.27 | 1.23 ± 0.099 |
| TQEQFVKRRRDMLEHIN [SRB4] | – | 2.06 ± 0.27 | – | 1.26 ± 0.089 |
| DLAFGGEANKHHWEDLQ [RPN5] | 3.09 ± 0.12 | 3.31 ± 0.16 | 3.07 ± 0.11 | 3.21 ± 0.091 |
| RIIREMFAYAKEHEPCI [RPT4] | 2.43 ± 0.1 | 2.65 ± 0.12 | 2.83 ± 0.11 | 2.58 ± 0.093 |
| VHRITDEEASYKLGKVK [RPS4A] | 3.01 ± 0.087 | 3.13 ± 0.13 | 2.98 ± 0.12 | 3.07 ± 0.12 |
| AALYKEVYNVIASDGSY [RPO21] | 2.34 ± 0.089 | 1.77 ± 0.1 | 2.22 ± 0.15 | 3.06 ± 0.12 |
| LNEIELDNLKLKELRID [GRR1] | 3.28 ± 0.097 | 3.09 ± 0.11 | 3.18 ± 0.054 | 2.85 ± 0.092 |
| LPLDSQDDEYVKDWLYD [PRP8] | 3.44 ± 0.15 | 3.39 ± 0.088 | 3.35 ± 0.099 | 3.1 ± 0.053 |
| HAIIIFGYPETIANSII [YMR153W/NUP53] | 1.91 ± 0.078 | 2.04 ± 0.065 | 2.17 ± 0.098 | 2.92 ± 0.046 |
| LSALDHYERTQTKENKR [RPN8] | 2.91 ± 0.077 | 2.82 ± 0.087 | 2.71 ± 0.073 | 2.68 ± 0.057 |
| IIVQYLTKFRQKLMQLV [RGR1] | 2.65 ± 0.089 | 2.88 ± 0.16 | 2.56 ± 0.083 | 2.46 ± 0.1 |
| GVMSLLQKSSKSMITSE [YAR002W/NUP60] | 2.46 ± 0.06 | 2.61 ± 0.062 | 2.19 ± 0.076 | 2.95 ± 0.063 |
| LDEDDVNADDDDFMHSE [RPB4] | 2.94 ± 0.096 | 2.82 ± 0.088 | 2.53 ± 0.12 | 3.07 ± 0.09 |
| EKLTMVFQDNVYKIYNH [SIN4] | 2.08 ± 0.06 | 2.53 ± 0.053 | 1.6 ± 0.086 | 1.81 ± 0.037 |
| LLKQYPKDSSSTFREWK [YJR042W/NUP85] | 2.54 ± 0.045 | 2.6 ± 0.048 | 2.71 ± 0.038 | 2.81 ± 0.042 |
